Assay results from patent US20220048967A1 (published 2022).
Residue numbers refer to the chain shown, from its start. Numbered stars: 1 amine (or outer) side, 2 acyl side, 3 side chain; on linkers, the order of the positions; unused ones are H or OH. Square brackets hold non-standard residues; d marks the D form. Side chains are listed from the residue outwards. Ends that are not written are not given here. * marks the point of attachment. C20 diacid = O=C(O)CCCCCCCCCCCCCCCCCCC(=O)*; γGlu = O=C(O)[C@H](CCC(=O)[*:2])N[*:1]; AEEA = NCCOCCOCC(=O)O; Aib = CC(C)(N)C(=O)O

T1: human GIP receptor (human, UniProt P48546 22-466)
T1 sequence (looked up): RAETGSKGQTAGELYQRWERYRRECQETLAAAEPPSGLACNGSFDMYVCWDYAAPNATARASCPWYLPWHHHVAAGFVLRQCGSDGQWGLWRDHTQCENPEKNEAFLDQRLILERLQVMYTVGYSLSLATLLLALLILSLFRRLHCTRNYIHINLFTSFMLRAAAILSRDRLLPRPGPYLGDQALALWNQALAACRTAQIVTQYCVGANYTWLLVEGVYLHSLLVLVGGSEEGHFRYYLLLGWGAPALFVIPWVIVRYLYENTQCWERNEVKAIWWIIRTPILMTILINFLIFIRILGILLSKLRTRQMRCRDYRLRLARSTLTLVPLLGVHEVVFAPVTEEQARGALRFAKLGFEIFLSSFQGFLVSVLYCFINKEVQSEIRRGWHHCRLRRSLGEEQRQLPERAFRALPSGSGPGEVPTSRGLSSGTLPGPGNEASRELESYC

B1: Example 70 (peptide)
peptide: Y[Aib]EGTFTSDK([AEEA-AEEA-γGlu-C20 diacid])SILLDKIAQ[Aib]AFIEYLIEGG-NH2
modifications: N-terminus assumed
SMILES: CC[C@H](C)[C@H](NC(=O)[C@H](CCCCN)NC(=O)[C@H](CC(=O)O)NC(=O)[C@H](CC(C)C)NC(=O)[C@H](CC(C)C)NC(=O)[C@@H](NC(=O)[C@H](CO)NC(=O)[C@H](CCCCNC(=O)COCCOCCNC(=O)COCCOCCNC(=O)CC[C@H](NC(=O)CCCCCCCCCCCCCCCCCCC(=O)O)C(=O)O)NC(=O)[C@H](CC(=O)O)NC(=O)[C@H](CO)NC(=O)[C@@H](NC(=O)[C@H](Cc1ccccc1)NC(=O)[C@@H](NC(=O)CNC(=O)[C@H](CCC(=O)O)NC(=O)C(C)(C)NC(=O)[C@@H](N)Cc1ccc(O)cc1)[C@@H](C)O)[C@@H](C)O)[C@@H](C)CC)C(=O)N[C@@H](C)C(=O)N[C@@H](CCC(N)=O)C(=O)NC(C)(C)C(=O)N[C@@H](C)C(=O)N[C@@H](Cc1ccccc1)C(=O)N[C@H](C(=O)N[C@@H](CCC(=O)O)C(=O)N[C@@H](Cc1ccc(O)cc1)C(=O)N[C@@H](CC(C)C)C(=O)N[C@H](C(=O)N[C@@H](CCC(=O)O)C(=O)NCC(=O)NCC(N)=O)[C@@H](C)CC)[C@@H](C)CC
B2: Example 71 (peptide)
peptide: Y[Aib]EGTFTSDYSILK([AEEA-AEEA-γGlu-C20 diacid])DKIAQ[Aib]AFIEYLIEGG-NH2
modifications: N-terminus assumed
SMILES: CC[C@H](C)[C@H](NC(=O)[C@H](CCCCN)NC(=O)[C@H](CC(=O)O)NC(=O)[C@H](CCCCNC(=O)COCCOCCNC(=O)COCCOCCNC(=O)CC[C@H](NC(=O)CCCCCCCCCCCCCCCCCCC(=O)O)C(=O)O)NC(=O)[C@H](CC(C)C)NC(=O)[C@@H](NC(=O)[C@H](CO)NC(=O)[C@H](Cc1ccc(O)cc1)NC(=O)[C@H](CC(=O)O)NC(=O)[C@H](CO)NC(=O)[C@@H](NC(=O)[C@H](Cc1ccccc1)NC(=O)[C@@H](NC(=O)CNC(=O)[C@H](CCC(=O)O)NC(=O)C(C)(C)NC(=O)[C@@H](N)Cc1ccc(O)cc1)[C@@H](C)O)[C@@H](C)O)[C@@H](C)CC)C(=O)N[C@@H](C)C(=O)N[C@@H](CCC(N)=O)C(=O)NC(C)(C)C(=O)N[C@@H](C)C(=O)N[C@@H](Cc1ccccc1)C(=O)N[C@H](C(=O)N[C@@H](CCC(=O)O)C(=O)N[C@@H](Cc1ccc(O)cc1)C(=O)N[C@@H](CC(C)C)C(=O)N[C@H](C(=O)N[C@@H](CCC(=O)O)C(=O)NCC(=O)NCC(N)=O)[C@@H](C)CC)[C@@H](C)CC
B3: Example 58 (peptide)
peptide: Y[Aib]EGTFTSDYSSLLDKK([AEEA-AEEA-γGlu-C20 diacid])AQ[Aib]AFIEYLIEGGPSSGAPPPS-NH2
modifications: N-terminus assumed
SMILES: CC[C@H](C)[C@H](NC(=O)[C@H](CC(C)C)NC(=O)[C@H](Cc1ccc(O)cc1)NC(=O)[C@H](CCC(=O)O)NC(=O)[C@@H](NC(=O)[C@H](Cc1ccccc1)NC(=O)[C@H](C)NC(=O)C(C)(C)NC(=O)[C@H](CCC(N)=O)NC(=O)[C@H](C)NC(=O)[C@H](CCCCNC(=O)COCCOCCNC(=O)COCCOCCNC(=O)CC[C@H](NC(=O)CCCCCCCCCCCCCCCCCCC(=O)O)C(=O)O)NC(=O)[C@H](CCCCN)NC(=O)[C@H](CC(=O)O)NC(=O)[C@H](CC(C)C)NC(=O)[C@H](CC(C)C)NC(=O)[C@H](CO)NC(=O)[C@H](CO)NC(=O)[C@H](Cc1ccc(O)cc1)NC(=O)[C@H](CC(=O)O)NC(=O)[C@H](CO)NC(=O)[C@@H](NC(=O)[C@H](Cc1ccccc1)NC(=O)[C@@H](NC(=O)CNC(=O)[C@H](CCC(=O)O)NC(=O)C(C)(C)NC(=O)[C@@H](N)Cc1ccc(O)cc1)[C@@H](C)O)[C@@H](C)O)[C@@H](C)CC)C(=O)N[C@@H](CCC(=O)O)C(=O)NCC(=O)NCC(=O)N1CCC[C@H]1C(=O)N[C@@H](CO)C(=O)N[C@@H](CO)C(=O)NCC(=O)N[C@@H](C)C(=O)N1CCC[C@H]1C(=O)N1CCC[C@H]1C(=O)N1CCC[C@H]1C(=O)N[C@@H](CO)C(N)=O
B4: Example 73 (peptide)
peptide: Y[Aib]EGTFTSDYSILLDKIAQ[Aib]AFIEYLIK([AEEA-AEEA-γGlu-C20 diacid])GG-NH2
modifications: N-terminus assumed
SMILES: CC[C@H](C)[C@H](NC(=O)[C@H](CCCCN)NC(=O)[C@H](CC(=O)O)NC(=O)[C@H](CC(C)C)NC(=O)[C@H](CC(C)C)NC(=O)[C@@H](NC(=O)[C@H](CO)NC(=O)[C@H](Cc1ccc(O)cc1)NC(=O)[C@H](CC(=O)O)NC(=O)[C@H](CO)NC(=O)[C@@H](NC(=O)[C@H](Cc1ccccc1)NC(=O)[C@@H](NC(=O)CNC(=O)[C@H](CCC(=O)O)NC(=O)C(C)(C)NC(=O)[C@@H](N)Cc1ccc(O)cc1)[C@@H](C)O)[C@@H](C)O)[C@@H](C)CC)C(=O)N[C@@H](C)C(=O)N[C@@H](CCC(N)=O)C(=O)NC(C)(C)C(=O)N[C@@H](C)C(=O)N[C@@H](Cc1ccccc1)C(=O)N[C@H](C(=O)N[C@@H](CCC(=O)O)C(=O)N[C@@H](Cc1ccc(O)cc1)C(=O)N[C@@H](CC(C)C)C(=O)N[C@H](C(=O)N[C@@H](CCCCNC(=O)COCCOCCNC(=O)COCCOCCNC(=O)CC[C@H](NC(=O)CCCCCCCCCCCCCCCCCCC(=O)O)C(=O)O)C(=O)NCC(=O)NCC(N)=O)[C@@H](C)CC)[C@@H](C)CC
B5: Example 66 (peptide)
peptide: YXEGTFTSDYSIXLDEKAQXAFIEYLLEGGPSSGAPPPS
modifications: not fully specified; Aib2; αMeF13 as printed (likely αMeL13); K17((2-[2-(2-Amino-ethoxy)-ethoxy]-acetyl)2-(γ-Glu)-CO-(CH2)18-CO2H); Aib20; C-terminal NH2
B6: Example 69 (peptide)
peptide: B5 peptide with F6X, E16K, L27I
modifications: not fully specified; Aib2; αMeF6; αMeF13 as printed (likely αMeL13); K17((2-[2-(2-Amino-ethoxy)-ethoxy]-acetyl)2-(γ-Glu)-CO-(CH2)18-CO2H); Aib20; C-terminal NH2
B7: Example 68 (peptide)
peptide: B5 peptide with S11X, X13L, E16K, L27I
modifications: Aib2; αMeS11; K17((2-[2-(2-Amino-ethoxy)-ethoxy]-acetyl)2-(γ-Glu)-CO-(CH2)18-CO2H); Aib20; C-terminal NH2
B8: Example 74 (peptide)
peptide: B5 peptide with E16K, F22X, L27I
modifications: not fully specified; Aib2; αMeF13 as printed (likely αMeL13); K17((2-[2-(2-Amino-ethoxy)-ethoxy]-acetyl)2-(γ-Glu)-CO-(CH2)18-CO2H); Aib20; αMeF22; C-terminal NH2
B9: Example 75 (peptide)
peptide: B5 peptide with E16K, L26X, L27I
modifications: not fully specified; Aib2; αMeF13 as printed (likely αMeL13); K17((2-[2-(2-Amino-ethoxy)-ethoxy]-acetyl)2-(γ-Glu)-CO-(CH2)18-CO2H); Aib20; αMeF26 as printed (likely αMeL26); C-terminal NH2
B10: Example 67 (peptide)
peptide: B5 peptide with X13L, E16K, F22X, L27I
modifications: Aib2; K17((2-[2-(2-Amino-ethoxy)-ethoxy]-acetyl)2-(γ-Glu)-CO-(CH2)18-CO2H); Aib20; αMeF22; C-terminal NH2
B11: Example 76 (peptide)
peptide: B5 peptide with F6X, E16K, F22X, L27I
modifications: not fully specified; Aib2; αMeF6; αMeF13 as printed (likely αMeL13); K17((2-[2-(2-Amino-ethoxy)-ethoxy]-acetyl)2-(γ-Glu)-CO-(CH2)18-CO2H); Aib20; αMeF22; C-terminal NH2
B12: Example 72 (peptide)
peptide: Y[Aib]EGTFTSDYSILLDKIAQ[Aib]K([AEEA-AEEA-γGlu-C20 diacid])FIEYLIEGG-NH2
modifications: N-terminus assumed
SMILES: CC[C@H](C)[C@H](NC(=O)[C@H](CCCCN)NC(=O)[C@H](CC(=O)O)NC(=O)[C@H](CC(C)C)NC(=O)[C@H](CC(C)C)NC(=O)[C@@H](NC(=O)[C@H](CO)NC(=O)[C@H](Cc1ccc(O)cc1)NC(=O)[C@H](CC(=O)O)NC(=O)[C@H](CO)NC(=O)[C@@H](NC(=O)[C@H](Cc1ccccc1)NC(=O)[C@@H](NC(=O)CNC(=O)[C@H](CCC(=O)O)NC(=O)C(C)(C)NC(=O)[C@@H](N)Cc1ccc(O)cc1)[C@@H](C)O)[C@@H](C)O)[C@@H](C)CC)C(=O)N[C@@H](C)C(=O)N[C@@H](CCC(N)=O)C(=O)NC(C)(C)C(=O)N[C@@H](CCCCNC(=O)COCCOCCNC(=O)COCCOCCNC(=O)CC[C@H](NC(=O)CCCCCCCCCCCCCCCCCCC(=O)O)C(=O)O)C(=O)N[C@@H](Cc1ccccc1)C(=O)N[C@H](C(=O)N[C@@H](CCC(=O)O)C(=O)N[C@@H](Cc1ccc(O)cc1)C(=O)N[C@@H](CC(C)C)C(=O)N[C@H](C(=O)N[C@@H](CCC(=O)O)C(=O)NCC(=O)NCC(N)=O)[C@@H](C)CC)[C@@H](C)CC

How the values were obtained:
human GLP-1 receptor = human GLP-1 receptor (human, UniProt P43220 24-463); assay: cell-based or functional assay
human GIP receptor = target: T1, human GIP receptor; assay: cell-based or functional assay

Row | Binder | hGLP1R cAMP EC50 ratio (human GLP-1 receptor) | hGLP1R cAMP Rel EC50 (human GLP-1 receptor) | hGIPR cAMP EC50 ratio (human GIP receptor) | hGIPR cAMP Rel EC50 (human GIP receptor)
1 | B1 | 0.207 | 0.283 nM | 0.351 | 0.48 nM
2 | B2 | 0.0604 | 1.02 nM | 1.02 | 0.166 nM
3 | B3 | 0.378 | 0.18 nM | 0.522 | 0.266 nM
4 | B4 | 0.0225 | 2.55 nM | 0.174 | 0.979 nM
5 | B5 | 0.255 | 0.285 nM | 1.89 | 0.0743 nM
6 | B6 | 0.85 | 0.0844 nM | 2.73 | 0.0712 nM
7 | B7 | 0.354 | 0.153 nM | 1.67 | 0.0881 nM
8 | B8 | 0.115 | 0.467 nM | 1.7 | 0.0866 nM
9 | B9 | 0.0359 | 1.49 nM | 0.69 | 0.214 nM
10 | B10 | 0.123 | 0.447 nM | 1.61 | 0.0913 nM
11 | B11 | 0.63 | 0.125 nM | 1.24 | 0.124 nM
12 | B12 | 0.0645 | 0.906 nM | 0.715 | 0.252 nM
